Results published in PMC9063846 (Acta Crystallographica. Section D, Structural Biology, 2022).

Molecular target: the molecule itself
Assay: SEC-MALS; SEC-MALLS; Superdex 200 Increase 10/300 GL; 100 µl injected at 2 mg/ml; 20 mM HEPES, 200 mM NaCl pH 7.4; room temperature (20 ± 2 °C)

B1: Phocaeicola vulgatus sialic acid 9-O-acetylesterase (PvSAE), His6-tagged (enzyme)
chain: ERKYSTFYEQRATLFEELPVTSKDIIFLGNSITNGCEWAELFQNKNVKNRGISGDICMGVYDRLDPIVKGKPAKIFLLIGINDVSRGTSADKIISEISMIVRKIKQESPKTKLYLQSVLPVNDCYGMFNGHTSRWQVVKQINDLLEPLAVKEGVAYIDLYSHFVEKETGKMNPVYTNDGLHLLGKGYLLWRDIVKPYVDQK
notes: Sialic acid 9-O-acetylesterase PvSAE (BVU4141) of Phocaeicola vulgatus, GenBank ABR41743.1, without its signal peptide; the text says that the signal peptide is predicted to be cut between residues 19 and 20; Homodimer by SEC-MALLS and in both crystal forms; also called His6-PvSAE; P. vulgatus 9-O-acetylsialic acid esterase
For B1, which “stoichiometry N” value is on record?
The value was 2.
